Data: patent US20220267796A1

How the values were obtained:
[1] = target: AAV8 (recombinant adeno-associated virus serotype 8 particles, capsid of VP1, VP2 and VP3 of AAV8) (adeno-associated virus 8 (AAV8)); assay: affinity chromatography on AAVX column, +2-8° C., ELT-buffer pH 7.0; AAV8 ELISA of fraction
[2] = target: AAV9 (recombinant adeno-associated virus serotype 9 particles, capsid of VP1, VP2 and VP3 of AAV9) (adeno-associated virus 9 (AAV9)); assay: batch adsorption, 0.2 g resin + 9.6 g LOAD, 15 to 16 h at +2° C. to +8° C.; AAV9 ELISA of supernatant
[3] = target: AAV8 (recombinant adeno-associated virus serotype 8 particles, capsid of VP1, VP2 and VP3 of AAV8) (adeno-associated virus 8 (AAV8)); assay: affinity chromatography on AAVX column, +2-8° C., 125 mM NaCl/50 mM TrisHCl pH 8.5; AAV8 ELISA of fraction
[4] = target: AAV9 (recombinant adeno-associated virus serotype 9 particles, capsid of VP1, VP2 and VP3 of AAV9) (adeno-associated virus 9 (AAV9)); assay: affinity chromatography on AAVX column, +22-28° C., 125 mM NaCl/50 mM TrisHCl pH 8.5; AAV9 ELISA of fraction
[5] = target: AAV8 (recombinant adeno-associated virus serotype 8 particles, capsid of VP1, VP2 and VP3 of AAV8) (adeno-associated virus 8 (AAV8)); assay: affinity chromatography on AAVX column, +18-26° C., 125 mM NaCl/50 mM TrisHCl pH 8.5; AAV8 ELISA of fraction
[6] = target: AAV8 (recombinant adeno-associated virus serotype 8 particles, capsid of VP1, VP2 and VP3 of AAV8) (adeno-associated virus 8 (AAV8)); assay: affinity chromatography on AAVX column, +2-8° C., 100 mM NaAcetate/0.1% Tween 80 pH 6.0; AAV8 ELISA of fraction
[7] = target: AAV9 (recombinant adeno-associated virus serotype 9 particles, capsid of VP1, VP2 and VP3 of AAV9) (adeno-associated virus 9 (AAV9)); assay: affinity chromatography on AAVX column, +22-28° C., 100 mM NaAcetate/0.1% Tween 80 pH 6.0; AAV9 ELISA of fraction
[8] = target: AAV8 (recombinant adeno-associated virus serotype 8 particles, capsid of VP1, VP2 and VP3 of AAV8) (adeno-associated virus 8 (AAV8)); assay: affinity chromatography on AAVX column, +18-26° C., 100 mM NaAcetate/0.1% Tween 80 pH 6.0; AAV8 ELISA of fraction
[9] = target: AAV9 (recombinant adeno-associated virus serotype 9 particles, capsid of VP1, VP2 and VP3 of AAV9) (adeno-associated virus 9 (AAV9)); assay: affinity chromatography on AAVX column, gradient 1 mM to 20 mM HCl/200 mM NaCl at +2-8° C.; AAV9 ELISA of fraction
[10] = target: AAV9 (recombinant adeno-associated virus serotype 9 particles, capsid of VP1, VP2 and VP3 of AAV9) (adeno-associated virus 9 (AAV9)); assay: affinity chromatography on AAVX column, strip at +2-8° C. with 100 mM Glycine, 200 mM NaCl pH 2.0; AAV9 ELISA of fraction
[11] = target: AAV9 (recombinant adeno-associated virus serotype 9 particles, capsid of VP1, VP2 and VP3 of AAV9) (adeno-associated virus 9 (AAV9)); assay: affinity chromatography on AAVX column, elution at +2-8° C. with 125 mM NaCl/50 mM TrisHCl pH 8.5; AAV9 ELISA of fraction
[12] = target: AAV8 (recombinant adeno-associated virus serotype 8 particles, capsid of VP1, VP2 and VP3 of AAV8) (adeno-associated virus 8 (AAV8)); assay: affinity chromatography on AAVX column, gradient 1 mM to 20 mM HCl/200 mM NaCl at +2-8° C.; AAV8 ELISA of pooled fraction
[13] = target: AAV9 (recombinant adeno-associated virus serotype 9 particles, capsid of VP1, VP2 and VP3 of AAV9) (adeno-associated virus 9 (AAV9)); assay: affinity chromatography on AAVX column, elution at +2-8° C. with 100 mM NaAcetate/0.1% Tween 80 pH 6.0; AAV9 ELISA of fraction
[14] = target: AAV9 (recombinant adeno-associated virus serotype 9 particles, capsid of VP1, VP2 and VP3 of AAV9) (adeno-associated virus 9 (AAV9)); assay: affinity chromatography on AAVX column, standard elution at +18-26° C. with 100 mM Glycine, 200 mM NaCl pH 2.7; AAV9 ELISA of fraction
[15] = target: AAV9 (recombinant adeno-associated virus serotype 9 particles, capsid of VP1, VP2 and VP3 of AAV9) (adeno-associated virus 9 (AAV9)); assay: affinity chromatography on AAVX column, +22-28° C., 125 mM NaCl/50 mM TrisHCl pH 8.5; AAV9 ELISA of fraction (load 2.86 x 10^11 cp/ml)
[16] = target: AAV8 (recombinant adeno-associated virus serotype 8 particles, capsid of VP1, VP2 and VP3 of AAV8) (adeno-associated virus 8 (AAV8)); assay: affinity chromatography on AAVX column, +18-26° C., 125 mM NaCl/50 mM TrisHCl pH 8.5; AAV8 ELISA of fraction (load 23.2 x 10^11 cp/ml)
[17] = target: AAV9 (recombinant adeno-associated virus serotype 9 particles, capsid of VP1, VP2 and VP3 of AAV9) (adeno-associated virus 9 (AAV9)); assay: batch adsorption, 0.2 g resin + 9.6 g LOAD, 15 to 16 h at +18° C. to +30° C., 125 mM NaCl/50 mM Tris HCl pH 8.5; AAV9 ELISA of supernatant
[18] = target: AAV9 (recombinant adeno-associated virus serotype 9 particles, capsid of VP1, VP2 and VP3 of AAV9) (adeno-associated virus 9 (AAV9)); assay: batch adsorption at room temperature, then 30 min in 1 ml cold 125 mM NaCl/50 mM Tris HCl pH 8.5 at +2° C. to +8° C.; AAV9 ELISA of supernatant

“POROS CaptureSelect AAVX Affinity Resin (Cat. No. 36742; Thermo Fisher), immobilised affinity ligand” gave an AAV8 Antigen cp/ml in low temperature eluate 2 [1] of under 1.59e+09 cp/ml, a % AAV9 Antigen in supernatant (not bound) after incubation at low temperature [2] of 63.7% and an AAV8 Antigen cp/ml in low temperature eluate 3 [3] of under 1.59e+09 cp/ml. The AAV9 Antigen [%] of load found in flow-through/wash 1 (not bound) [4] was 1.76%, the AAV9 Antigen [%] of load found in wash 3 [4] was 0.04% and the AAV9 Antigen cp/ml in wash 3 [4] was under 3.8e+09 cp/ml. The AAV8 Antigen cp/ml in wash 3 [5] was under 1.59e+09 cp/ml, the AAV8 Antigen cp/ml in low temperature eluate 1 [6] was under 1.59e+09 cp/ml and the AAV9 Antigen [%] of load found in wash 2 [7] was 0.04%. For the same substance, the AAV9 Antigen cp/ml in wash 2 [7] was under 3.8e+09 cp/ml, the AAV9 Antigen cp/ml in wash 4 [7] was under 3.8e+09 cp/ml and the AAV8 Antigen cp/ml in wash 2 [8] was under 1.59e+09 cp/ml. The AAV8 Antigen cp/ml in wash 4 [8] was under 1.59e+09 cp/ml, the AAV9 Antigen [%] of load released by acidic gradient [9] was 5.42% and the AAV9 Antigen [%] of load released only by acidic strip [10] was 16.9%. It also gave an AAV9 Antigen [%] of load released in low temperature eluate [11] of 44.8%, an AAV9 Antigen [%] of load released in low temperature eluate 3 [11] of 11.6% and an AAV8 Antigen [%] of load released by acidic gradient [12] of 75.8%. For the same substance, the AAV9 Antigen [%] of load released in low temperature eluate 1 [13] was 61.2%, the AAV9 Antigen [%] of load released by acidic elution [14] was 81.5% and the AAV9 Antigen cp/ml in flow-through/wash 1 (not bound) [15] was under 3.8e+09 cp/ml. The AAV8 Antigen cp/ml in flow-through/wash 1 (not bound) [16] was under 1.59e+09 cp/ml, the % AAV9 Antigen in supernatant (not bound) after incubation at room temperature [17] was 6.2% and the % AAV9 Antigen in eluate (released at low temperature) [18] was 36.7%.
